Source: article doi:10.1101/2023.02.24.529952
pKd: −log10 of the molar value.

Molecular target: HCoV-OC43 Nucleocapsid (N) protein (2X-StrepTag tagged) (HCoV-OC43) (UniProt P33469)
Test: BLI

HCoV-OC43 Nucleocapsid (N) protein (2X-StrepTag tagged) (HCoV-OC43), sequence (P33469 whole entry): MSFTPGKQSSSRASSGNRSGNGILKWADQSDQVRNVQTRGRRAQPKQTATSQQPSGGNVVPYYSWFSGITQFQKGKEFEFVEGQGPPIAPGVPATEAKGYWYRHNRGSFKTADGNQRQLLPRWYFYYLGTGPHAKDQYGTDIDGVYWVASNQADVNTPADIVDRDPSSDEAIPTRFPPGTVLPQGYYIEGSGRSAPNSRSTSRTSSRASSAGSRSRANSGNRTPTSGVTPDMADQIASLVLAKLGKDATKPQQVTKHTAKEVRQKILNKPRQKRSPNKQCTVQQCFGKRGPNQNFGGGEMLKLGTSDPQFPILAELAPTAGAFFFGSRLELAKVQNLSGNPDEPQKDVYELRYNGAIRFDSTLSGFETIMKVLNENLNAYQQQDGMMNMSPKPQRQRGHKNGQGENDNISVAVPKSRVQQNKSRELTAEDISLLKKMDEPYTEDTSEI

## CXCL4 (ligand)
  pKd: 6.77
  koff: 0.00088 s⁻¹
  kon: 5300 M⁻¹ s⁻¹
